Biological target: FGFR3 (UniProt P22607)
Experiment: phosphorylation enrichment, bacterial display (enrichment ratio); higher = better substrate or ligand; peptides without Tyr show the background
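Also: 11-residue human phosphosite peptides and single-mutation variants displayed on the E. coli surface, counted by deep sequencing, each peptide's frequency after selection divided by its frequency in the unselected input library; frequency after pTyr selection over input frequency; kinase dosed for 20-30% of maximal phosphorylation in three min.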

FGFR3, sequence (P22607 whole entry, looked up): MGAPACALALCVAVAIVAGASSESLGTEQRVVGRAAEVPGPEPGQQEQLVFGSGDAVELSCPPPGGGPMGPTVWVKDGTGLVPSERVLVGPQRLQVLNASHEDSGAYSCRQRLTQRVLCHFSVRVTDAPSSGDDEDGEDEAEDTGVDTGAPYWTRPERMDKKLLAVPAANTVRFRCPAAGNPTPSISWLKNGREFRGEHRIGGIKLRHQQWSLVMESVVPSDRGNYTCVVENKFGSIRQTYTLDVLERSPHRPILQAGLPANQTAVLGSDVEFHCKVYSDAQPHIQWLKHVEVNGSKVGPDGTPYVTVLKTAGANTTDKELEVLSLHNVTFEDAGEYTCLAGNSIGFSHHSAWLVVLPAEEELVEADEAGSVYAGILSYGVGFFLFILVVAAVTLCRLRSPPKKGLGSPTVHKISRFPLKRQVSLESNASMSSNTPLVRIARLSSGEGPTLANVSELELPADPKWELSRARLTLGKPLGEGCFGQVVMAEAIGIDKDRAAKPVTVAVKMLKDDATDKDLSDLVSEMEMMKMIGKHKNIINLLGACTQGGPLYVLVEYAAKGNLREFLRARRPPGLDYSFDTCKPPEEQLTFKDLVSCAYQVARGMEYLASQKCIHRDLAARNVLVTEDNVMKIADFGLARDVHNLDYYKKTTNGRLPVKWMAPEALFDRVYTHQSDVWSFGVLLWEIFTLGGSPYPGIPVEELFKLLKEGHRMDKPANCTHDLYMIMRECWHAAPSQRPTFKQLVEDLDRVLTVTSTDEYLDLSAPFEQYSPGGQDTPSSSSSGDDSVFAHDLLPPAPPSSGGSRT

In order of rising phosphorylation enrichment:
1. QAKRKYQEVSK [FES_Y156_A159V]  0.37
2. SGGGSYGSGGG [KRT1_Y539]  0.372
3. VEYAKYGSLRG [RET_Y809]  0.47
4. GGTPLYMDRQG [AGXT_Y194]  0.47
5. SRVNKYSTAFG [GJB3_Y16_G12R]  0.489
6. FLTSSYINIST [IL23R_Y178_YF]  0.489
7. IATTIYSGDKI [UGGT2_Y823_A821T]  0.493
8. HVPEEYKPKQG [SAXO2_Y37]  0.519
9. RFLERYIFNRE [HLA-DPB1_Y57_YF]  0.543
10. GREAEYSDKHG [EPHB4_Y574]  0.547
11. VCRHNYGVVES [HLA-DRB1_Y112_Y107V]  0.566
12. KKCTRYIDCAL [ASPA_Y64_D68A]  0.568
13. VAMDDYLKNVM [LRRK2_Y707]  0.59
14. RLDRSYSFSFS [PEAR1_Y890_YF]  0.607
15. FTAVGYHKHIT [NOMO1_Y1137]  0.614
16. ESMQSYDLDFP [UNC13B_Y243_D238E_YF]  0.63
17. GKTQQYDCKWF [BCR_Y751_YF]  0.63
18. DENWFYTRAAS [RPS19_Y54]  0.673
19. QMVRMYASSFM [AVPR2_Y124_G122R_YF]  0.677
20. FGSLLYKYAFK [FANCD2_Y458]  0.684
21. MPPHICAITDT [MYH9_Y151_Y151C]  0.685
22. RDVEQYVNNVN [PCDH19_Y1097_L1094V]  0.701
23. TKQLTYEEQYL [PIK3C3_Y310_D314Y]  0.766
24. LWQSIYNLDAE [TNNT2_Y251_E254D]  0.784
25. LVSCTYQLARR [FGFR2_Y608_G613R]  0.793
26. DSFSSYCNAVA [SLC20A2_Y436_YF]  0.812
27. ETESPYQELQG [TYROBP_Y91]  0.834
28. LKVKAYRFSIS [LCT_Y974]  0.835
29. LLSVAYKNVVR [YWHAZ_Y48_G53R]  0.853
30. NLMPAYFKCIQ [CYP21A2_Y190_YF]  1.01
31. IYETDYYQKGG [INSR_Y1189_R1191Q]  1.46
32. HNLDFYKMTTN [FGFR3_Y648_K650M_YF]  1.88
33. HKDNNYVSMWF [PAPOLG_Y432]  2.75

System: Fer (mouse)
Experiment: as above

In order of rising phosphorylation enrichment:
1. QAKRKYQEVSK [FES_Y156_A159V]  0.233
2. FGSLLYKYAFK [FANCD2_Y458]  0.324
3. VAMDDYLKNVM [LRRK2_Y707]  0.333
4. RFLERYIFNRE [HLA-DPB1_Y57_YF]  0.356
5. SGGGSYGSGGG [KRT1_Y539]  0.356
6. FLTSSYINIST [IL23R_Y178_YF]  0.375
7. HVPEEYKPKQG [SAXO2_Y37]  0.386
8. VEYAKYGSLRG [RET_Y809]  0.395
9. IATTIYSGDKI [UGGT2_Y823_A821T]  0.41
10. KKCTRYIDCAL [ASPA_Y64_D68A]  0.418
11. VCRHNYGVVES [HLA-DRB1_Y112_Y107V]  0.428
12. GGTPLYMDRQG [AGXT_Y194]  0.431
13. DENWFYTRAAS [RPS19_Y54]  0.45
14. RDVEQYVNNVN [PCDH19_Y1097_L1094V]  0.454
15. GKTQQYDCKWF [BCR_Y751_YF]  0.463
16. GREAEYSDKHG [EPHB4_Y574]  0.472
17. FTAVGYHKHIT [NOMO1_Y1137]  0.48
18. QMVRMYASSFM [AVPR2_Y124_G122R_YF]  0.482
19. SRVNKYSTAFG [GJB3_Y16_G12R]  0.499
20. ESMQSYDLDFP [UNC13B_Y243_D238E_YF]  0.506
21. LWQSIYNLDAE [TNNT2_Y251_E254D]  0.513
22. LKVKAYRFSIS [LCT_Y974]  0.52
23. LLSVAYKNVVR [YWHAZ_Y48_G53R]  0.55
24. DSFSSYCNAVA [SLC20A2_Y436_YF]  0.608
25. MPPHICAITDT [MYH9_Y151_Y151C]  0.631
26. ETESPYQELQG [TYROBP_Y91]  0.673
27. HNLDFYKMTTN [FGFR3_Y648_K650M_YF]  0.728
28. NLMPAYFKCIQ [CYP21A2_Y190_YF]  0.768
29. RLDRSYSFSFS [PEAR1_Y890_YF]  0.809
30. LVSCTYQLARR [FGFR2_Y608_G613R]  0.896
31. TKQLTYEEQYL [PIK3C3_Y310_D314Y]  0.965
32. IYETDYYQKGG [INSR_Y1189_R1191Q]  1.6
33. HKDNNYVSMWF [PAPOLG_Y432]  2.8

Biological target: Fes (UniProt P07332)
Sequence (P07332 whole entry, looked up): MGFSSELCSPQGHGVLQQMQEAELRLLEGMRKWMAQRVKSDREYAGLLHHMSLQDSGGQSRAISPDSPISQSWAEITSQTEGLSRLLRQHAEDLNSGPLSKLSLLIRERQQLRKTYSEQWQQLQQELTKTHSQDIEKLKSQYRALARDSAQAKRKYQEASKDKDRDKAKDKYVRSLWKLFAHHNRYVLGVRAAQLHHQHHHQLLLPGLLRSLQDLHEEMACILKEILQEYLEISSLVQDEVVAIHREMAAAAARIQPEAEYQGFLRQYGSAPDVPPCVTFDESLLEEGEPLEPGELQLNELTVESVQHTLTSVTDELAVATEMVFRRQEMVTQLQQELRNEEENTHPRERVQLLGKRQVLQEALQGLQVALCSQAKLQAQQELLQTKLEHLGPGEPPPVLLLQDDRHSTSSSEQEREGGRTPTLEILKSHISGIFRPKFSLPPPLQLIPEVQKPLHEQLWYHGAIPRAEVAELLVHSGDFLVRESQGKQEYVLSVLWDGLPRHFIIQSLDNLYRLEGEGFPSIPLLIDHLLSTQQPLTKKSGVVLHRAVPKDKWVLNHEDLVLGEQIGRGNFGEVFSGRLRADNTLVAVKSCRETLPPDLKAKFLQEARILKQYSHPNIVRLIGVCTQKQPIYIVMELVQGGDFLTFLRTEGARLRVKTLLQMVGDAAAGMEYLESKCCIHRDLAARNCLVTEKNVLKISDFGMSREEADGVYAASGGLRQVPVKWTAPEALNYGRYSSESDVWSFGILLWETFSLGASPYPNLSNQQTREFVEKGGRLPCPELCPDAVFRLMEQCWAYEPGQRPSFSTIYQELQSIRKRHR
Experiment: as above

In order of falling phosphorylation enrichment:
1. HNLDFYKMTTN [FGFR3_Y648_K650M_YF]  1.74
2. NLMPAYFKCIQ [CYP21A2_Y190_YF]  1.6
3. HKDNNYVSMWF [PAPOLG_Y432]  1.39
4. ETESPYQELQG [TYROBP_Y91]  1.39
5. LLSVAYKNVVR [YWHAZ_Y48_G53R]  1.34
6. LVSCTYQLARR [FGFR2_Y608_G613R]  1.33
7. LKVKAYRFSIS [LCT_Y974]  1.22
8. LWQSIYNLDAE [TNNT2_Y251_E254D]  1.2
9. TKQLTYEEQYL [PIK3C3_Y310_D314Y]  1.18
10. HVPEEYKPKQG [SAXO2_Y37]  1.17
11. DSFSSYCNAVA [SLC20A2_Y436_YF]  1.11
12. DENWFYTRAAS [RPS19_Y54]  1.11
13. MPPHICAITDT [MYH9_Y151_Y151C]  1.1
14. IYETDYYQKGG [INSR_Y1189_R1191Q]  1.08
15. GKTQQYDCKWF [BCR_Y751_YF]  1.07
16. ESMQSYDLDFP [UNC13B_Y243_D238E_YF]  1.04
17. FGSLLYKYAFK [FANCD2_Y458]  1.04
18. RLDRSYSFSFS [PEAR1_Y890_YF]  0.984
19. VAMDDYLKNVM [LRRK2_Y707]  0.956
20. RDVEQYVNNVN [PCDH19_Y1097_L1094V]  0.93
21. RFLERYIFNRE [HLA-DPB1_Y57_YF]  0.914
22. QMVRMYASSFM [AVPR2_Y124_G122R_YF]  0.843
23. GREAEYSDKHG [EPHB4_Y574]  0.821
24. VCRHNYGVVES [HLA-DRB1_Y112_Y107V]  0.793
25. FLTSSYINIST [IL23R_Y178_YF]  0.779
26. KKCTRYIDCAL [ASPA_Y64_D68A]  0.755
27. IATTIYSGDKI [UGGT2_Y823_A821T]  0.752
28. FTAVGYHKHIT [NOMO1_Y1137]  0.685
29. SRVNKYSTAFG [GJB3_Y16_G12R]  0.633
30. GGTPLYMDRQG [AGXT_Y194]  0.614
31. VEYAKYGSLRG [RET_Y809]  0.552
32. SGGGSYGSGGG [KRT1_Y539]  0.491
33. QAKRKYQEVSK [FES_Y156_A159V]  0.257

Biological target: Fyn (UniProt P06241)
Sequence (P06241 whole entry, looked up): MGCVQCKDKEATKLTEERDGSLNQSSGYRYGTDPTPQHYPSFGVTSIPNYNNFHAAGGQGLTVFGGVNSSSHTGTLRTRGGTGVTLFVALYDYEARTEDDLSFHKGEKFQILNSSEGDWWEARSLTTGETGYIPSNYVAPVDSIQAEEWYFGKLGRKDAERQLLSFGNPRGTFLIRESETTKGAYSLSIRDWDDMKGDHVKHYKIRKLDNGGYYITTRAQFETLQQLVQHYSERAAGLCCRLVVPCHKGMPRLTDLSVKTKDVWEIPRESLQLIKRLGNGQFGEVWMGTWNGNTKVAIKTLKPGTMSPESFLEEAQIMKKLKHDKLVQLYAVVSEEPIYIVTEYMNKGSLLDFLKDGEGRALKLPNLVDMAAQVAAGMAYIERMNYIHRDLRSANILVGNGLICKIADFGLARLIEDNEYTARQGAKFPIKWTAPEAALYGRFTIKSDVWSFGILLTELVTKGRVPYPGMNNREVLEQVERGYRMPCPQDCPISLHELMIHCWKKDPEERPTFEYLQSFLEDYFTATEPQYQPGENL
Experiment: as above

In order of rising phosphorylation enrichment:
1. RFLERYIFNRE [HLA-DPB1_Y57_YF]  0.311
2. KKCTRYIDCAL [ASPA_Y64_D68A]  0.336
3. QAKRKYQEVSK [FES_Y156_A159V]  0.365
4. FGSLLYKYAFK [FANCD2_Y458]  0.366
5. SRVNKYSTAFG [GJB3_Y16_G12R]  0.371
6. VCRHNYGVVES [HLA-DRB1_Y112_Y107V]  0.398
7. SGGGSYGSGGG [KRT1_Y539]  0.412
8. FTAVGYHKHIT [NOMO1_Y1137]  0.432
9. GKTQQYDCKWF [BCR_Y751_YF]  0.432
10. HVPEEYKPKQG [SAXO2_Y37]  0.449
11. VAMDDYLKNVM [LRRK2_Y707]  0.449
12. TKQLTYEEQYL [PIK3C3_Y310_D314Y]  0.45
13. DENWFYTRAAS [RPS19_Y54]  0.454
14. FLTSSYINIST [IL23R_Y178_YF]  0.48
15. DSFSSYCNAVA [SLC20A2_Y436_YF]  0.509
16. ESMQSYDLDFP [UNC13B_Y243_D238E_YF]  0.51
17. MPPHICAITDT [MYH9_Y151_Y151C]  0.51
18. GGTPLYMDRQG [AGXT_Y194]  0.516
19. NLMPAYFKCIQ [CYP21A2_Y190_YF]  0.546
20. RDVEQYVNNVN [PCDH19_Y1097_L1094V]  0.577
21. IATTIYSGDKI [UGGT2_Y823_A821T]  0.591
22. QMVRMYASSFM [AVPR2_Y124_G122R_YF]  0.605
23. LKVKAYRFSIS [LCT_Y974]  0.648
24. LVSCTYQLARR [FGFR2_Y608_G613R]  0.699
25. RLDRSYSFSFS [PEAR1_Y890_YF]  0.702
26. LLSVAYKNVVR [YWHAZ_Y48_G53R]  0.762
27. HKDNNYVSMWF [PAPOLG_Y432]  0.77
28. GREAEYSDKHG [EPHB4_Y574]  0.773
29. ETESPYQELQG [TYROBP_Y91]  0.775
30. VEYAKYGSLRG [RET_Y809]  1.21
31. IYETDYYQKGG [INSR_Y1189_R1191Q]  1.46
32. HNLDFYKMTTN [FGFR3_Y648_K650M_YF]  1.66
33. LWQSIYNLDAE [TNNT2_Y251_E254D]  9.69
